In article PMC5969902:
Where “and” joins values, the source holds several entries; their conditions need not be identical. Identical values can stand only once.

How the values were obtained:
[1] = biological target: actin filament barbed ends elongating from unlabeled rabbit skeletal muscle actin (rabbit) (UniProt P68135); test: single-filament microfluidics with fluorescence microscopy; survival of formin-bound barbed ends, exponential fit; 1 µM unlabeled actin, no profilin; KCl and configuration not given
[2] = biological target: actin filament barbed ends elongating from unlabeled rabbit skeletal muscle actin (rabbit) (UniProt P68135); test: single-filament microfluidics with fluorescence microscopy; survival of formin-bound barbed ends, exponential fit; 0.5 µM unlabeled actin, no profilin; KCl and configuration not given
[3] = biological target: actin filament barbed ends elongating from unlabeled rabbit skeletal muscle actin (rabbit) (UniProt P68135); test: single-filament microfluidics with fluorescence microscopy; survival of formin-bound barbed ends, exponential fit; 3 µM unlabeled actin, 5 µM profilin; KCl and configuration not given
[4] = biological target: actin filament barbed ends elongating from unlabeled rabbit skeletal muscle actin (rabbit) (UniProt P68135); test: single-filament microfluidics with fluorescence microscopy; survival of formin-bound barbed ends, exponential fit; 1 µM unlabeled actin, 10 µM profilin; KCl and configuration not given
[5] = biological target: actin filament barbed ends elongating from unlabeled rabbit skeletal muscle actin (rabbit) (UniProt P68135); test: single-filament microfluidics with fluorescence microscopy; survival of formin-bound barbed ends, exponential fit; 2 µM unlabeled actin, 5 µM profilin; KCl and configuration not given
[6] = biological target: actin filament barbed ends elongating from unlabeled rabbit skeletal muscle actin (rabbit) (UniProt P68135); test: single-filament microfluidics with fluorescence microscopy; survival of formin-bound barbed ends, exponential fit; 1 µM unlabeled actin, 5 µM profilin; KCl and configuration not given
[7] = biological target: actin filament barbed ends elongating from unlabeled rabbit skeletal muscle actin (rabbit) (UniProt P68135); test: single-filament microfluidics with fluorescence microscopy; survival of formin-bound barbed ends, exponential fit; 3 µM unlabeled actin, 10 µM profilin; KCl and configuration not given
[8] = biological target: actin filament barbed ends elongating from unlabeled rabbit skeletal muscle actin (rabbit) (UniProt P68135); test: single-filament microfluidics with fluorescence microscopy; survival of formin-bound barbed ends, exponential fit; 2 µM unlabeled actin, 10 µM profilin; KCl and configuration not given
mDia1 FH1 = mDia1 FH1 (UniProt O08808); conditions: cited from earlier work

profilin, sequence (P07274 whole entry): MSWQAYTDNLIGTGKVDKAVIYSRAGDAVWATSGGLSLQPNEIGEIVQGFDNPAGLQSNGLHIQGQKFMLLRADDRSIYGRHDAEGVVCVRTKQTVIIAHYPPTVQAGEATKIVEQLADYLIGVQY

| Substance | koff [1] | koff [2] | koff [3] | koff [4] | koff [5] | koff [6] | koff [7] | koff [8] | Kd (mDia1 FH1) |
| --- | --- | --- | --- | --- | --- | --- | --- | --- | --- |
| mDia1(FH2-DAD) (from UniProt O08808 1-1255) (domain or fragment) | 0.0047 s⁻¹ and 0.0089 s⁻¹ | 0.004 s⁻¹ | 0.0063 s⁻¹ and 0.0085 s⁻¹ | 0.0025 s⁻¹ and 0.0036 s⁻¹ | 0.0042 s⁻¹ | 0.0031 s⁻¹ and 0.0025 s⁻¹ and 0.0051 s⁻¹ | 0.0064 s⁻¹ | 0.00226 s⁻¹ |  |
| profilin (from UniProt P07274) |  |  |  |  |  |  |  |  | > 100 µM |
